Reference: article PMC6331727

Biological target: ADP-ribosylation factor-like protein 13B (Arl13b)
Assay: co-immunoisolation with paramagnetic beads, immunoblot quantification
Details: MDCK cells expressing Prom1 or K138Q; n = 3; parent: est. 0.53; read off a plot

other: Arl13b / Prom1 ratio: 0.05
Substance: Human Prominin-1 (Prom1/CD133), splice variant s2 (from UniProt O43490) K138Q
